Data: publication PMC4310594

Target: T1, RamA (Klebsiella pneumoniae (Ecl8?)) (UniProt Q48413)
T1 sequence: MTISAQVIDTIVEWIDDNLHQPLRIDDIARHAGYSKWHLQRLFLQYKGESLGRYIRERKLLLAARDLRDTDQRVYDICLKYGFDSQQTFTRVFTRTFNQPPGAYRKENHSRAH
Test: EMSA

Sequence: GCACTTCAACTAAATTCGCCTGAGTTTGGCTCATAAAATCATCCTTACTAAACACCTGACGGGCAAGCATGGCCCTTTCTTGCGCCACAATCACAACATTTTTACAGAATCTTACCTGCACAGGTTAGCGAAAGCTGGCATTTGTTTTACTTTTGGCACACATAAAGTCAAAATTAAGAATTCGTTACGCTGCGTAGGGATAACCCAGCGAGGCGACGATTATACCTGAAG (double strand) [yrbF promoter]
- binding: binds

Sequence: GCCTGCATAATCGTTTCCTGACAAAAAAGGGTATTGTGACCGATAGTCGCCCACTTGCAAAACCTCTCTGCGCGGTTGGTCATTACCCACCGCACAAATGGGACGTGTTTTTTCGGCTGAAATCGTTACAATCAGGAAATCATACTATCTGGAGTGAACCATGTTAGAGCTTTTGAAAAGTCTGGTTTTTGCGGTCATCATGGTACCGGTGGTGATGGCGGTCATCCTGGGACTGATTTACGGTCTTGGCGAAGTGTTCAAC (double strand) [ybhT promoter]
- binding: binds

Sequence: GGAAACGATTGCCAGGACTGGTGCTTCAGGCCTGATAAACCGCTCACTTTGTTAACAACAGTGCTCAGATTTTAATGCATTATTAAAGATGCAGCTTTTCTGGCTGGCGCGTCCAGGATGCGCCAGGCTGGAAGAAGACCTTCAATCTGATGACGATGCTGTAGCAAAGTGAGCCTTTATGACTGACAAATCTGTTCCATTCTCGGTGCTCGATCTGGCGCCGATCCCGCAAGGATCTTCTGCCAAAGAAGCCTTTACCCA (double strand) [yhbW promoter]
- binding: binds
